Changes are numbered by the printed parent chain. Numbers in names are those of the source.
B1: P2-1G1 (antibody, V domains shown)
VH: EVQLVESGGGLVQPGRSLRLSCAASGFTFDDYAMHWVRQAPGKGLEWVSGMSWNSGTIGYADSVKGRFTISRDNAKNSLYLQMNSLRPEDTALYYCAKDIGGAEMATRNYGMDVWGQGTTVTVSS
VL: QSALTQPASVSGSPGQSITISCTGASSDVGGYNYVSWYQQHPGKAPKLMIYDVSERPSGVSNRFSGSKSGNTASLTISGLQAEDEADYYCSSYTSSSTLVFGGGTKLTVL
B2: P195-2B8 (antibody, V domains shown)
VH: EVQLVESGGGLIHPGGSLRLSCAASGFTVSSNYMTWVRQAPGKGLEWVSVIYSGGSTFYADSVKGRFTISRDNSKNTLYLQMNSLRAQDTAVYYCARDLSVYGMDVWGQGTTVTVSS
VL: DIQLTQSPSFLSASVGDRVTITCRASQGISSYLAWYQQKPGKAPKLLIYAASTLQSGVPSRFSGSGSGTEFTLTISSLQPEDFATYYCQQLNSDSFTFGPGTKVDIK
B3: P195-2A1 (antibody, V domains shown)
VH: EVQLVESGGGLVQPGGSLRLSCAASGFTVSSNYMSWVRQAPGKGLEWVSVIYSGGSTYYADSVKGRFTISRDNSKNTLYLQMNSLRAEDTAVYYCARGEGGDLPFDYWGQGTLVTVSS
VL: QSALTQPASVSGSPGQSITISCTGTSSDVGGYYYVSWFQQHPGEAPKLMIFDVSKRPSGVSNRFSGSKSGNTASLTISGLQAEDEADYYCSSYTSSSTSHVLFGGGTKLTVL
B4: P5-1A7 (antibody, V domains shown)
VH: EVQLVESGGDLIQPGGSLRLSCAASGFTVSSNYMSWVRQAPGKGLEWVAVIYSGGSTYYADSVKGRFTISRDNSKNTLYLQMNSLRAEDTAVYYCARDYGDFYFDYWGQGTLVTVSS
VL: not shown
B5: P2-1G7 (antibody, V domains shown)
VH: EVQLVESGGGLIQPGGSLRLSCAASGFIVSSNYMTWVRQAPGKGLEWVSVLFSGGSTFYADSVKGRFTISRDNSKNTLYLQMNSLRAEDTAVYYCARENGGYYFDYWGQGTLVTVSS
VL: B2 VL with S31T, S93N, D94Y, S95P, F96P, T97D, P100G, D105E
B6: P5S-2G9 (antibody, V domains shown)
VH: QVTLRESGPALVKPTQTLTLTCTFSGFSLRTTGMCVSWIRQPPGKALEWLALIDWDGDKYYATSLETRLTISKDTSENQVVLTMTNMDPVDTATYYCVRTLRLRWLDFWGQGTLVTVSS
VL: DIQMTQSPSSLSASVGDRVTITCRASQSIGTSLNWYQQKPVKAPNLLIYGASSLQSGVPSRFSGSGSGTDFTLTISSLQPEDFATYYCQQGYTTPLTFGGGTKVEIK
B7: P2-1G9 (antibody, V domains shown)
VH: EVQLVESGGGLVQPGGSLRLSCAASGFTFSTYWMSWVRQAPGKGLEWVANIKQDGSDKYYVDSVKGRFTISRDNAKNSLYLQMNSLRVEDTAVYYCARDLGILWFGELPNFDPWGQGTLVTVSS
VL: DIQMTQSPSSLSASVGDRVTITCRASQGISNSLAWYQQKPGKAPKLLLYAASTLESGVPSRFSGSGSGTDYTLTISSLQPEDFATYYCQQYYSPPPRTFGQGTKVEIK
B8: P5S-1B11 (antibody, V domains shown)
VH: QVQLVQSGAEVKKPGASVKLSCRASGYTFTSYFMHWVRQAPGQGLEWMGVINPGGGGTSYAQKFQGRVTMTRDTSTSTVYMELSSLRSEDTAVYYCARYYDSIDNFDYWGQGTLVTVSS
VL: DIQMTQSPSSLSASVGDRVTITCRASQGIRNDLGWYQQKPGKAPKCLIYAASSLQSGVPSRFSGSRSGTEFTLTISSLQPEDFATYYCLQHNTYPQLTFGGGTKVEIK

biological target: recombinant RBD protein of wild-type SARS-CoV-2 (ELISA antigen) (SARS-CoV-2 wild-type, UniProt P0DTC2)

Row | Binder | binding result
1 | B1 | binds
2 | B2 | binds
3 | B3 | binds
4 | B4 | binds
5 | B5 | binds
6 | B6 | binds
7 | B7 | binds
8 | B8 | binds

biological target: recombinant wild-type SARS-CoV-2 S trimer (ELISA antigen) (SARS-CoV-2 wild-type, UniProt P0DTC2)

Row | Binder | binding result
9 | B1 | binds
10 | B2 | binds
11 | B3 | binds
12 | B4 | binds
13 | B5 | binds
14 | B6 | binds
15 | B7 | binds
16 | B8 | binds

From publication PMC10063446 (Nature Immunology, 2023)
